Positions count from the first letter of the chain named. Numbers in names are those of the source.
T1: DCC
T1 construct: coated protein in the ELISA; also called DCC-His (R&D Systems)
T1 chain: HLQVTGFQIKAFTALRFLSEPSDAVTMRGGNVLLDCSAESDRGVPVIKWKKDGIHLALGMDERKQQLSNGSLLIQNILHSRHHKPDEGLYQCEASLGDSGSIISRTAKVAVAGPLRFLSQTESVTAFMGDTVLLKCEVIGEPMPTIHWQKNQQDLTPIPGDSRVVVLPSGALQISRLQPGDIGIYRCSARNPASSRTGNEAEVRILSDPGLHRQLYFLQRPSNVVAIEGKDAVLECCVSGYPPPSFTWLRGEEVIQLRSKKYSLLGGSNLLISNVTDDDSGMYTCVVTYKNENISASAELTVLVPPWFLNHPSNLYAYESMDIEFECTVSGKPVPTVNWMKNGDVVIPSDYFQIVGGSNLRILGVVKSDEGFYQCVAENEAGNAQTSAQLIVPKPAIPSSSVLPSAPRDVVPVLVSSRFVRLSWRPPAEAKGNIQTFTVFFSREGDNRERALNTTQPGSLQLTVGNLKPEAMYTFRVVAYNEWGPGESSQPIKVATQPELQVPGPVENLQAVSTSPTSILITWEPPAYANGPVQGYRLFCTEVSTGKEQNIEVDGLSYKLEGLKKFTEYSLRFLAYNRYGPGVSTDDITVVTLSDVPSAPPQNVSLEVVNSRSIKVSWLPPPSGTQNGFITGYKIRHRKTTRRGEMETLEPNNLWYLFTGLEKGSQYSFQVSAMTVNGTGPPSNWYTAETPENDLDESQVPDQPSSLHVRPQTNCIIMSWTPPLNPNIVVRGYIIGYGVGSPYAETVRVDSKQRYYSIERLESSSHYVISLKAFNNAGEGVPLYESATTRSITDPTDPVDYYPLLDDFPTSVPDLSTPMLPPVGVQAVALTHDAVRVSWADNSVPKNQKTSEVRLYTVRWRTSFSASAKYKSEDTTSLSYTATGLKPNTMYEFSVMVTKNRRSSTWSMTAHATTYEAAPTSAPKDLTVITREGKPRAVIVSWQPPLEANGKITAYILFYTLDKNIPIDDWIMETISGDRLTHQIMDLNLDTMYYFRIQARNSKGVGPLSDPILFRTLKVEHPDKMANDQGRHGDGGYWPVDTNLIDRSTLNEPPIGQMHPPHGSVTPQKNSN

T2: SLAMF7
T2 construct: coated protein in the ELISA; also called SLAMF7-StrepTag
T2 chain: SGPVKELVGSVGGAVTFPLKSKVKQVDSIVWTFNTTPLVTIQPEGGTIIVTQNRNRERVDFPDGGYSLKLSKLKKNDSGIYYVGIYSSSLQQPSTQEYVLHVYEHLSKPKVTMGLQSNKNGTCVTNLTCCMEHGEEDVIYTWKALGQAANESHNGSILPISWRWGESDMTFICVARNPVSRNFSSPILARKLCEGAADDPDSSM

B1: TH9-0022 (antibody, human IgG1, kappa, L234A L235A, V domains shown)
VH: QSLEESGGRLVTPGTPLTLTCTVSGFSLSSYAMNWVRQAPGKGLEWIGIINSYGSTYYASWAKGRFTISKTSTTVDLKITSPTTEDTATYFCARVTYDSYGYGYAPYGMDLWGPGTLVTVSS
VL: LVMTQTPSSTSNAVGGTVTIKCQASQSIGNVLAWYQQKPGQPPKLLIYAASTLASGVPSRVGGSRSGTEYTLTISGVQREDAATYYCLGSDSDSDIAFGGGTELEILR
notes: also called TH9-022; negative control
B2: HW-42 chimeric rabbit-human IgG1 LA/LA/PG (antibody, V domains shown)
VH: QSVKESEGGLFKPADTLTLTCTVSGFSLSSNEISWVRQAPGEGLEYIGIIDTGGRAYYAVWARSRSTITRNTNLNTVTLKMTSLTAADTATYFCARGGVDTEWYAFSSWGPGTLVTVPS
VL: SFVLTQPASVQVNLGQTVSLTCTADTLSRRYASWYQQKPGQAPVLLIFRDTSRPSGVPDRFSGSSSGDTATLTISGAQAGDEADYYCATSDGSGSNYQYVFGGGTQLTVTG
notes: Fc-silenced (L234A/L235A/P329G) IgG1, lambda; Alexa Fluor 647-labeled in single-step flow cytometry; Cluster C-1
B3: HW-101 chimeric rabbit-human IgG1 LA/LA/PG (antibody, V domains shown)
VH: QEQLVESGGRLVTPGTPLTLTCKASGFSLGKYDMSWVRQAPGKGLEWIGTIYAGSGSTWYASWAKGRFTISKTSTTVDLKMTSLTTEDTATYFCARDFLGVNSIWGPGTLVTISS
VL: B2 VL with R30S, G40D, F48H, S65N, D68N, Y97F, Q98H, Y99F
notes: Fc-silenced (L234A/L235A/P329G) IgG1, lambda; Alexa Fluor 647-labeled in single-step flow cytometry; Cluster C-97
B4: HW-25 chimeric rabbit-human IgG1 LA/LA/PG (antibody, V domains shown)
VH: QSLEESGGRLVTPGTPLTLTCTVSGFSLSSYAMGWVRQAPGKGLEWIGIIDSRGSTYYATWAKGRFTISKTSTTVDLKITSPTTEDTATYFCAREDSYYYDSFNLWGPGTLVTVSS
VL: B2 VL with F48Y, D68N, N96S, Y99C
notes: as for B2
B5: HW-1 chimeric rabbit-human IgG1 LA/LA/PG (antibody, V domains shown)
VH: QSLEESGGGLFKPTDTLTLTCTASGFSLGSSYAISWVRQAPGKELEWIGTIDSGRAYYARWAKSRSTITRNTNENTVTLKMTSLTAADTATYFCARDLIPTYSQDIWGPGTLVTISS
VL: B2 VL with F48Y, D68N, S95N, N96S, G111S
notes: Fc-silenced (L234A/L235A/P329G) IgG1, lambda; Alexa Fluor 647-labeled in single-step flow cytometry; Prototype of cluster C-1

Assays:
DCC = biological target: T1, DCC; assay: ELISA on coated DCC-His
Method: (§1) Recombinant purified ECDs (50-150 ng) of each putative target protein were coated, incubated with 150 ng of the indicated primary antibody, and binding was detected using a peroxidase-conjugated anti-human Fab secondary antibody. Heatmap represents averages of technical triplicates. (8B) Target validation via siRNA knockdown. H929 cells were transfected with siRNA pools targeting the putative antibody targets ICAM1, CADM1, and PTPRG. Cells were then subjected to cognate IgG binding analysis via flow cytometry. (NT, non-targeting siRNA).
(§2) ELISA ELISA was conducted as described previously. Briefly, 50-150 ng of antigen was coated overnight in half-area 96-well plates at 4° C., blocked with 3% BSA at 37° C. for 1 h, and 150 ng of chimeric rabbit/human IgG1 was added, incubating for 2 h at 37° C. […] After incubating at 37° C. for 15 min-1 h (depending on intensity of controls), data were acquired using a SpectraMax M5 plate reader (Molecular Devices).

SLAMF7 = biological target: T2, SLAMF7; assay: ELISA on coated SLAMF7-StrepTag
Method: as §1, §2

[1] = biological target: T3, PTPRG, endogenous in H929 multiple myeloma cells (human, UniProt P23470 20-1445); assay: flow cytometry, H929 + NT Green siRNA; None 1.35
T3 construct: Native protein on H929 cells (flow cytometry, siRNA knockdown) and in H929 lysates (IP/MS); also called phosphatase receptor type γ

PTP4A3 (PRL-3) = biological target: T4, PTP4A3 (PRL-3); assay: ELISA on coated His-PTP4A3, 150 ng IgG1; None 0.085
T4 construct: coated protein in the ELISA; also called His-PTP4A3 (R&D Systems)
Method: as §1, §2

T3 sequence (P23470 20-1445 limits assumed): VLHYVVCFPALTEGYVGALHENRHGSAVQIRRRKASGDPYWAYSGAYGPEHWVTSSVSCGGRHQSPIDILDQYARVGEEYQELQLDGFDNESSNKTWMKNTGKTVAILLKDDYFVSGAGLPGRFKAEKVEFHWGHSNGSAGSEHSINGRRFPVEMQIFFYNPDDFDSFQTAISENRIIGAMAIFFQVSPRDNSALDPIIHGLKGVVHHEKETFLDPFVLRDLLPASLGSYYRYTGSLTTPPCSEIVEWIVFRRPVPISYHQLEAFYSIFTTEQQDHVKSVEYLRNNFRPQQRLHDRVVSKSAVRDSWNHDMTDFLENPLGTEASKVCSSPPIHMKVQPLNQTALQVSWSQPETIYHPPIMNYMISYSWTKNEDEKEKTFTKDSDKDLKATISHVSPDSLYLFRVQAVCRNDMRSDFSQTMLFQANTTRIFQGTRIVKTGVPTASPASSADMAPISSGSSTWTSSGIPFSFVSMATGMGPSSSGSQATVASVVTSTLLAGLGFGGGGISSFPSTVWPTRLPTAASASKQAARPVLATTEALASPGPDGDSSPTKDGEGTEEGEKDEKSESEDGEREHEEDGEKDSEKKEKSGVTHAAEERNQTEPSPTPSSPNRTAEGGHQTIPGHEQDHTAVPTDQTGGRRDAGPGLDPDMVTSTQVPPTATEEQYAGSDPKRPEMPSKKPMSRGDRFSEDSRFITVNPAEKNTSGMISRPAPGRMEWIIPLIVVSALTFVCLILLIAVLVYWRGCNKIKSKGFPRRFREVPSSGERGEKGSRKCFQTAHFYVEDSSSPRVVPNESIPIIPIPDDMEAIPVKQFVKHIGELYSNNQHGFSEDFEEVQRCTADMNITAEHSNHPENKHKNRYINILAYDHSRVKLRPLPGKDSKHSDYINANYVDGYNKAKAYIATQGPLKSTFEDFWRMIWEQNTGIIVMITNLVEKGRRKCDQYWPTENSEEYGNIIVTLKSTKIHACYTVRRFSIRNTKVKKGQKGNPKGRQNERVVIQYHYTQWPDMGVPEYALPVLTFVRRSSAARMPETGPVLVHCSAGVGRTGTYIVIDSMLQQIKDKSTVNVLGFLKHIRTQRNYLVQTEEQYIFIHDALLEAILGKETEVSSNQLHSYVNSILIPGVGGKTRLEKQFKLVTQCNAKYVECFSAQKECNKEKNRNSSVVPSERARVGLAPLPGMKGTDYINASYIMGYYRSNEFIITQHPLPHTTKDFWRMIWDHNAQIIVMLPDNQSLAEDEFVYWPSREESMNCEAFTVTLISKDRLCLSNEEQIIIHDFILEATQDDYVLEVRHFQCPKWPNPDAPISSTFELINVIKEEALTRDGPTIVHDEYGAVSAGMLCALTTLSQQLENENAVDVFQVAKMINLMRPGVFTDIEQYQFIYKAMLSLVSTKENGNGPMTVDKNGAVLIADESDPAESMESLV
T4 sequence (chain, as listed by the source limits assumed): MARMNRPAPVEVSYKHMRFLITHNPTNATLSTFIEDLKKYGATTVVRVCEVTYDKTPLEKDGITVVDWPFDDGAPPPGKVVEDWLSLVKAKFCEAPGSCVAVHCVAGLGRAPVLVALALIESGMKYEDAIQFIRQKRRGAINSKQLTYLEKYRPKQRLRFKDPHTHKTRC

Row | Binder | binding result (DCC) | binding result (SLAMF7) | Cells stained (%) [1] [%] | ELISA Absorbance (405 nm-570 nm) (PTP4A3 (PRL-3))
1 | B1 | no binding (tested: 150 ng IgG1 per well) | no binding (tested: 150 ng IgG1 per well) | 1.86 | 0.092
2 | B2 | no binding (tested: 150 ng IgG1 per well) | no binding (tested: 150 ng IgG1 per well) | 97.2 | 0.096
3 | B3 | no binding (tested: 150 ng IgG1 per well) | no binding (tested: 150 ng IgG1 per well) | – | 0.065
4 | B4 | no binding (tested: 150 ng IgG1 per well) | no binding (tested: 150 ng IgG1 per well) | 95.7 | 0.079
5 | B5 | no binding (tested: 150 ng IgG1 per well) | no binding (tested: 150 ng IgG1 per well) | 99.4 | 0.081
